B1: Neurogenin-3 (Homo sapiens), Q9Y4Z2 (parent)
chain: MTPQPSGAPTVQVTRETERSFPRASEDEVTCPTSAPPSPTRTRGNCAEAEEGGCRGAPRKLRARRGGRSRPKSELALSKQRRSRRKKANDRERNRMHNLNSALDALRGVLPTFPDDAKLTKIETLRFAHNYIWALTQTLRIADHSLYALEPPAPHCGELGSPGGSPGDWGSLYSPVSQAGSLSPAASLEERPGLLGATFSACLSPGSLAFSDFL
B2: WASH complex subunit 3 (Homo sapiens), Q9Y3C0 (parent)
chain: MDEDGLPLMGSGIDLTKVPAIQQKRTVAFLNQFVVHTVQFLNRFSTVCEEKLADLSLRIQQIETTLNILDAKLSSIPGLDDVTVEVSPLNVTSVTNGAHPEATSEQPQQNSTQDSGLQESEVSAENILTVAKDPRYARYLKMVQVGVPVMAIRNKMISEGLDPDLLERPDAPVPDGESEKTVEESSDSESSFSD
partner: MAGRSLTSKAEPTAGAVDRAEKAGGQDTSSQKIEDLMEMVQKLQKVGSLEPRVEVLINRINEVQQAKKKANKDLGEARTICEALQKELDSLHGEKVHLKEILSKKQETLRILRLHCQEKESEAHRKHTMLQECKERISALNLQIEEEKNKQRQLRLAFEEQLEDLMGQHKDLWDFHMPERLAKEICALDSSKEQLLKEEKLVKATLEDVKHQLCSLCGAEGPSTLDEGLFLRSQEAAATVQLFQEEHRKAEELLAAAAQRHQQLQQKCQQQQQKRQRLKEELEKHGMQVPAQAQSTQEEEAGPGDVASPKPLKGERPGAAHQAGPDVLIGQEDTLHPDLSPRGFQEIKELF
B3: Methylthioribulose-1-phosphate dehydratase (Homo sapiens), Q96GX9 (parent)
chain: MSGCDAREGDCCSRRCGAQDKEHPRYLIPELCKQFYHLGWVTGTGGGISLKHGDEIYIAPSGVQKERIQPEDMFVCDINEKDISGPSPSKKLKKSQCTPLFMNAYTMRGAGAVIHTHSKAAVMATLLFPGREFKITHQEMIKGIKKCTSGGYYRYDDMLVVPIIENTPEEKDLKDRMAHAMNEYPDSCAVLVRRHGVYVWGETWEKAKTMCECYDYLFDIAVSMKKVGLDPSQLPVGENGIV
partner: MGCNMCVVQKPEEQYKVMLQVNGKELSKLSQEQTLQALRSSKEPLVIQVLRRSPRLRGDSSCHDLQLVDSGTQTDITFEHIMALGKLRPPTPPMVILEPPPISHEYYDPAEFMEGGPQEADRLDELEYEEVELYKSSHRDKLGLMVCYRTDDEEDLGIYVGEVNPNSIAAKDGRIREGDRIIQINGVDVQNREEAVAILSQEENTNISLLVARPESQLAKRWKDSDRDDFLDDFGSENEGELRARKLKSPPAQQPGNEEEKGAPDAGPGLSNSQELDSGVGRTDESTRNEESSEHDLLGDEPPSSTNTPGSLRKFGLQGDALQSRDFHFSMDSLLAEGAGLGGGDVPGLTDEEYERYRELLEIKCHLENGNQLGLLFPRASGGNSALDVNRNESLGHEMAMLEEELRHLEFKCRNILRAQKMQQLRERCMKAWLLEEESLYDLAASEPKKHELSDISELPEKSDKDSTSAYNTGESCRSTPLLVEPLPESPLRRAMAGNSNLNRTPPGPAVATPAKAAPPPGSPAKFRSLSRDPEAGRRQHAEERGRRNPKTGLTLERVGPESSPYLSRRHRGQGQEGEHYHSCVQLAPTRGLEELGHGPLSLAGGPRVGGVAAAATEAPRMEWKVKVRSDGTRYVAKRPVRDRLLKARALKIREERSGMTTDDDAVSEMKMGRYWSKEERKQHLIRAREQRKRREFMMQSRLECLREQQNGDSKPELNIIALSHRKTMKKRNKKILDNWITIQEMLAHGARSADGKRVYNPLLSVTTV
B4: Peroxisomal biogenesis factor 19 (Homo sapiens), P40855 (parent)
chain: MAAAEEGCSVGAEADRELEELLESALDDFDKAKPSPAPPSTTTAPDASGPQKRSPGDTAKDALFASQEKFFQELFDSELASQATAEFEKAMKELAEEEPHLVEQFQKLSEAAGRVGSDMTSQQEFTSCLKETLSGLAKNATDLQNSSMSEEELTKAMEGLGMDEGDGEGNILPIMQSIMQNLLSKDVLYPSLKEITEKYPEWLQSHRESLPPEQFEKYQEQHSVMCKICEQFEAETPTDSETTQKARFEMVLDLMQQLQDLGHPPKELAGEMPPGLNFDLDALNLSGPPGASGEQCLIM
partner: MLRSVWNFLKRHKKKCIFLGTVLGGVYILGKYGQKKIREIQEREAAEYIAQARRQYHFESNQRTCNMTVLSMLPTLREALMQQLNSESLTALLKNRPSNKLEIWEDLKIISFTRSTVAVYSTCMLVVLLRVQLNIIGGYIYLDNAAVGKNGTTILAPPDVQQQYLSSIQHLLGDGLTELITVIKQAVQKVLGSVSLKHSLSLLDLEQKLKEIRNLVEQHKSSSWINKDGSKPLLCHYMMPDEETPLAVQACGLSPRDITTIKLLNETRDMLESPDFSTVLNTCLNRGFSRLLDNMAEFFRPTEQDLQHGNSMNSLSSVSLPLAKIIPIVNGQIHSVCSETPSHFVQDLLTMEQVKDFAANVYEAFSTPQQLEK

Variants of: B1
Settings: with htf4_human TCF12, Q99081
Sequence of htf4_human TCF12, Q99081 (Q99081 whole entry): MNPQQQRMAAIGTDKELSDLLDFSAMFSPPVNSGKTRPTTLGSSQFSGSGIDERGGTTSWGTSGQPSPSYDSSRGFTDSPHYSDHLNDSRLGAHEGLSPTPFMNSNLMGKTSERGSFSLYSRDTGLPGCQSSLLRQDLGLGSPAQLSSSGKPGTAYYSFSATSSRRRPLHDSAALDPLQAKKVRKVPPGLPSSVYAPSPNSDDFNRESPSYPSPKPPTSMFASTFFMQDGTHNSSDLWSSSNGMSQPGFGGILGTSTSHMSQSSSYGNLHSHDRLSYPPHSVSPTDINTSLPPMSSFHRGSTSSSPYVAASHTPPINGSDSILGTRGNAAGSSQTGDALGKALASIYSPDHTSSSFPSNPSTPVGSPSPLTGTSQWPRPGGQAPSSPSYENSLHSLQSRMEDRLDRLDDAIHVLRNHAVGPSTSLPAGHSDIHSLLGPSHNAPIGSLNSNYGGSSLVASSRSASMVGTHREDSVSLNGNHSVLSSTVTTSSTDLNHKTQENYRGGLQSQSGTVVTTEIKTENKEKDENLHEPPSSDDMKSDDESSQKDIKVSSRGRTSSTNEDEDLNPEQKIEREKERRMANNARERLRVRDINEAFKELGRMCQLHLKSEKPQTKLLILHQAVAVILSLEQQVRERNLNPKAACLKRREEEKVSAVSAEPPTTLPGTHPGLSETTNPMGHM

Variant	effect of a mutation on the interaction
MTPQPSGAPTVQVTRETERSFPRASEDEVTCPTSAPPSPTRTRGNCAEAEEGGCRGAPRKLRARRGGRSRPKSELALSKQRRSRRKKANDRERNRMHNLNSALDALRGVLPTFPDDAKLTKIETLRFAHNYIWALTQTLRIADHSLYALEPPAPHCGELGSPGGSPGDWGSLYSPVSQAGSLSPAASLEERPGLLGATSSACLSPGSLAFSDFL [F199S]	with no effect

Variants of: B2
Settings: with syce1_human SYCE1, Q8N0S2

Variant	effect of a mutation on the interaction
MDEDGLPLMGSGIDLTKVPAIQQKRTVAFLNQFVVHTVQFLNRLSTVCEEKLADLSLRIQQIETTLNILDAKLSSIPGLDDVTVEVSPLNVTSVTNGAHPEATSEQPQQNSTQDSGLQESEVSAENILTVAKDPRYARYLKMVQVGVPVMAIRNKMISEGLDPDLLERPDAPVPDGESEKTVEESSDSESSFSD [F44L]	with no effect

Variants of: B3
Settings: with pdzd4_human PDZD4, Q76G19

Variant	effect of a mutation on the interaction
MSGCDAREGDCCSRRCGAQDKEHPRYLIPELCKQFYHLGWVTGTGGGISLKHGDEIYIAPSGVQKERIQPEDMFVCDINEKDISGPSPSKKLKKSQCTPLFMNAYTMRGAAAVIHTHSKAAVMATLLFPGREFKITHQEMIKGIKKCTSGGYYRYDDMLVVPIIENTPEEKDLKDRMAHAMNEYPDSCAVLVRRHGVYVWGETWEKAKTMCECYDYLFDIAVSMKKVGLDPSQLPVGENGIV [G111A]	with no effect
MSGCDAREGDCCSRRCGAQDKEHPRYLIPELCKQFYHLGWVTGTGGGISLKHGDEIYIAPSGVQKERIQPEDMFVCDINEKDISGPSPSKKLKKSQCTPLFMNAYTMRGAGAVIHTHSKAAVMATLLFPGREFKITHQEMIKGIKKCTSGGYYRYDDMLVVPIIENTPEEKDLKDRMAHAVNEYPDSCAVLVRRHGVYVWGETWEKAKTMCECYDYLFDIAVSMKKVGLDPSQLPVGENGIV [M181V]	with no effect

Variants of: B4
Settings: with pex3_human PEX3, P56589

Variant	effect of a mutation on the interaction
MAAAEKGCSVGAEADRELEELLESALDDFDKAKPSPAPPSTTTAPDASGPQKRSPGDTAKDALFASQEKFFQELFDSELASQATAEFEKAMKELAEEEPHLVEQFQKLSEAAGRVGSDMTSQQEFTSCLKETLSGLAKNATDLQNSSMSEEELTKAMEGLGMDEGDGEGNILPIMQSIMQNLLSKDVLYPSLKEITEKYPEWLQSHRESLPPEQFEKYQEQHSVMCKICEQFEAETPTDSETTQKARFEMVLDLMQQLQDLGHPPKELAGEMPPGLNFDLDALNLSGPPGASGEQCLIM [E6K]	with no effect
MAAAEEGCSVGAEADRELEELLESALDDFDKAKPSPAPPSTTTAPDASGPQKRSPGDTAKDALFASQEKFFQELFDSELASQATAEFEKAMKELAEEEPHLVEQFQKLSEAAGRVGSDMTSQQEFTSCLKETLSGLAKNATDLQNSSMSEEELTKAMEGLGMDEGDGEGNILPIMQSIMQNLLSKDVLYPSLKEITEKYPEWLQSHGESLPPEQFEKYQEQHSVMCKICEQFEAETPTDSETTQKARFEMVLDLMQQLQDLGHPPKELAGEMPPGLNFDLDALNLSGPPGASGEQCLIM [R207G]	with no effect

Source: IntAct's records for PubMed 31515488
